We go through 2 molecules from article PMC7672466, “Biophysical analysis of Pseudomonas-phage PaP3 small terminase suggests a mechanism for sequence-specific DNA-binding by lateral interdigitation”.

For data set [1], the target named is T1, PaP3 ΔC122-TerS (Pseudomonas phage PaP3, UniProt Q8H9R5 1-121, del122-152).
T1 sequence: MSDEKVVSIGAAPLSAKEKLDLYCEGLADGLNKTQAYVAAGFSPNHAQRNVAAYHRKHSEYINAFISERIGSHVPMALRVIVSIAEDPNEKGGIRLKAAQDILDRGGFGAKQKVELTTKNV
The data set can be described thus: EMSA; 4-16% acrylamide; stronger than WT on scr; EMSA: incubation 37 C 30 min (binding buffer not stated; proteins in GF buffer 20 mM Tris-HCl pH 7.5, 150 mM NaCl, 5 mM bME, 2.5% glycerol); 1% agarose or 4-16% acrylamide gel, 0.5x TBE, 4 C. The following applies: protein: recombinant; tags: GST removed by PreScission protease; chain copies: 9; label: 5' Cy3; blunt. In general terms: A gel shift assay detects complexes by their altered migration in electrophoresis.

The target of data set [2] is T1, PaP3 ΔC122-TerS. Put plainly: EMSA; 0.15 uM cos DNA on agarose, also 4-16% acrylamide; comparable to WT; EMSA: incubation 37 C 30 min (binding buffer not stated; proteins in GF buffer 20 mM Tris-HCl pH 7.5, 150 mM NaCl, 5 mM bME, 2.5% glycerol); 1% agarose or 4-16% acrylamide gel, 0.5x TBE, 4 C. The following applies: protein: recombinant; tags: GST removed by PreScission protease; chain copies: 9; label: 5' Cy3 on both strands; blunt.

B1: Cy3-scr (dsDNA)
DNA 1: GCACTGCAGTAACTTGTCAGTCAT
DNA 2: ATGACTGACAAGTTACTGCAGTGC
Take B1: the binding result with PaP3 ΔC122-TerS [1] is recorded as “binds”.

B2: Cy3-cos (dsDNA)
DNA 1: GCCGGCCCCTTTCCGCGTTA
DNA 2: TAACGCGGAAAGGGGCCGGC
On to B2, for which the binding result with PaP3 ΔC122-TerS [2] is given as “binds”.
